Three molecules from patent US20040171074A1, “Structures of substrate binding pockets of SCF complexes” (MOUNT SINAI HOSPITAL, priority 2002, published 2004) can be followed below.

The subject of one assay is phospho-Sic1. In words: P-Sic1 pull down: in vitro capture of phospho-Sic1 on immobilized wild type or mutant Cdc4-GST-Skp1, anti-Sic1 immunoblot. It is filed as binding, yeast. To be noted: Sic1 phosphorylated with Cln2-Cdc28, captured onto GST-Skp1/Cdc4 resin, anti-Sic1 detection. As to the method: (§1) Mutational analysis of the CPD binding surface. Mutants were tested in vitro by ability to bind phosphorylated Sic1 and then captured onto GST-Skp1/Cdc4 resin and detected with anti-sic1 antibody. Mutants were tested in vivo by ability to degrade GAL1-SIC1 or various phosphorylation mutants. Sites are as follows: 3=Thr 33, Thr 45, Ser 76; 4=Thr 5, Thr 33, Thr 45, Ser 76; 5=Thr 2, Thr 5, Thr 33, Thr 45, Ser 76; 6=Thr 2, Thr 5, Thr 33, Thr 45, Ser 69, Ser 76; 7=Thr 2, Thr 5, Thr 33, Thr 45, Ser 69, Ser 76, Ser 80. GAL1-SIC1 plasmids were transformed into a cdc4Δ strain containing a copy of CDC4 on a TRP1 ARS CEN plasmid. Strains were incubated for 2 days at 30° C.
Bacterially expressed His6-Sic1 was phosphorylated with Cln2-Cdc28 kinase purified from baculovirus infected Sf9 cells as described before (Nature paper). 1 ug of WT or mutant Cdc4-GST-Skp1, immoblized on GSH-Sepharose resin, was incubated with 0.5 ug phospho-Sic1 at 4 C for 1 h and washed 4 times. Captured complexes were resolved on SDS-PAGE and Sic1 visualized by anti-Sic1 Western blotting and ECL. For IEF-2D analysis, several Sic1 phosphorylation reactions were carried out for different time periods to obtain a spectrum of Sic1 that were phosphorylated at different numbers of its nine CDK sites. This pool of phospho-Sic1 (2.5 ug) was incubated with 5 μg of WT or mutant Cdc4-GST-Skp1 as described above. Different phosphorylation states of Sic1 were separated by denaturing isoelectric focusing (IEF)-2D gel electrophoresis and visualized by anti-Sic1 Western blotting and ECL. IEF was performed using pH 3-10NL Immobiline gel strips and IPGphore IEF system (Amersham pharmacia).
(§2) Cdc4 functional assays. CDC4 mutant alleles were assessed for complementation of a cdc4A strain in a plasmid shuffle assay (Nash et al., 2001). Sensitivity to SIC1 dosage was determined by transformation with pMT837 (GAL1-SIC1) or pMT767 (GAL1-SIC1^T33V) and plating on glucose medium or galactose medium. For in vitro capture of phospho-Sic1 by Cdc4, 0.5 μg of bacterially-expressed ^HIS6Sic1 was phosphorylated with immobilized Cln2-Cdc28 kinase from baculovirus-infected Sf9 cells and then incubated with 1 μg of immobilized wild type or mutant Cdc4^263-744-GST-Skp1, at 4° C. for 1 hr, washed 4 times and visualized by anti-Sic1 immunoblot. For isoelectric focusing (IEF)-2D gel analyses, an evenly distributed pool of phospho-Sic1 isoforms was generated by combining different time points in a Sic1 phosphorylation reaction. 2.5 μg of the phospho-Sic1 pool was bound to 5 μg of immobilized wild type or mutant Cdc4^1-744-GST-Skp1. Captured isoforms were separated by denaturing IEF-2D gel electrophoresis using pH3-10NL Immobiline gel strips (Amersham) and visualized by anti-Sic1 immunoblot. Alternatively, the pool of phospho-Sic1 isoforms was incubated in solution with a ubiquitination reaction mix containing ATP, ubiquitin, yeast E1, Cdc34 and either wild type or mutant SCF^Cdc4 complex, composed of a 1:1 ratio of bacterial Cdc4-GST-Skp1 and insect cell-produced Cdc53-Rbx1, at 30° C. for 1 h as previously described (Nash et al., 2001).

The next assay concerns cdc4Δ strain. As to the kind of experiment: plasmid shuffle assay: complementation of a cdc4Δ strain by CDC4 alleles. To be noted: viability of cdc4Δ strain on 5-FOA, 2 days at 30° C. It is filed as cell-based, yeast. Here is the method:
(§3) All mutants on a TRP1 ARS CEN plasmid were transformed into a cdc4Δ strain (MT 1259) containing a wildtype copy of CDC4 on a URA3 ARS CEN plasmid. Cells were plated on either Trp^−Ura^− or 5-FOA medium for 2 days at 30° C. Viable cells on 5-FOA were grown in Trp medium and transformed with either wild type GAL1-SIC1, GAL1-SIC T45A, or GAL1-SIC T33V on a LEU2 ARS CEN pasmid. Cells were then plated on Leu- Trp-plates containing either glucose or galactose and incubated for 2 days at 30° C.
as §2

For assay [1], the system named is cdc4Δ strain overexpressing SIC1. In words: sensitivity to SIC1 dosage: GAL1-SIC1 overexpression in strains bearing CDC4 alleles. It is filed as cell-based, yeast. To be noted: for gal Sic1T33V: GAL1-SIC1 T33V (partially stabilized Sic1); for gal Sic1T33V / gal Sic1T45A / gal Sic1 wt: galactose, 2 days at 30° C.; for gal Sic1T45A: GAL1-SIC1 T45A; for gal Sic1 wt: GAL1-SIC1 wild type. As to the method: as §1, §3
Since the cell viability assay nay be masking subtle functional roles for the conserved Cdc4 residues, function was assayed in vivo under more stringent conditions in which Sic1 wt or the stabilized mutants, Sic1 (T33V) or Sic1(T45A) are over-expressed under a galactose promoter. This should amplify defects in cdc4 function. Under these conditions, Trp 717, Tyr 548 and the double mutant K404D/R443D are lethal showing that these residues are in fact important for functions
as §2

B1: Y548F: mutant cdc4 polypeptide (protein)
chain: MGSFPLAEFPLRDIPVPYSYRVSGGIASSGSVTALVTAAGTHRNSSTAKTVETEDGEEDIDEYQRKRAAGSGESTPERSDFKRVKHDNHKTLHPVNLQNTGAASVDNDGLHNLTDISNDAEKLLMSVDDGSAAPSTLSVNMGVASHNVAAPTTVNAATITGSDVSNNVNSATINNPMEEGALPLSPTASSPGTTTPLAKTTKTINNNNNIADLIESKDSIISPEYLSDEIFSAINNNLPHAYFKNLLFRLVANMDRSELSDLGTLIKDNLKRDLITSLPFEISLKIFNYLQFEDIINSLGVSQNWNKIIRKSTSLWKKLLISENFVSPKGFNSLNLKLSQKYPKLSQQDRLRLSFLENIFILKNWYNPKFVPQRTTLRGHMTSVITCLQFEDNYVITGADDKMIRVYDSINKKFLLQLSGHDGGVWALKYAHGGILVSGSTDRTVRVWDIKKGCCTHVFKGHNSTVRCLDIVEYKNIKYIVTGSRDNTLHVWKLPKESSVPDHGEEHDYPLVFHTPEENPYFVGVLRGHMASVRTVSGHGNIVVSGSFDNTLIVWDVAQMKCLYILSGHTDRIYSTIYDHERKRCISASMDTTIRIWDLENIWNNGECSYATNSASPCAKILGAMYTLQGHTALVGLLRLSDKFLVSAAADGSIRGWDANDYSRKFSYHHTNLSAITTFYVSDNILVSGSENQFNIYNLRSGKLVHANILKDADQIWSVNFKGKTLVAAVEKDGQSFLEILDFSKASKINYVSNPVNSSSSSLESISTSLGLTRTTIIP
Take B1: the P-Sic1 pull down result with phospho-Sic1 is reported as “no bind”; in the assay with phospho-Sic1 (listed as Tyr 548), “compromised”. Moreover, the shuffle result is on record as “alive” with cdc4Δ strain, “fractional” with cdc4Δ strain (listed as Tyr 548) and “did not cause loss of viability” in the assay on cdc4Δ strain (listed as Tyr548). In addition, the “gal Sic1T33V” value in assay [1] is “dead”; in assay [1] (listed as Tyr548) it was “dosage sensitivity”. In assay [1], the “gal Sic1T45A” value was “dead”. Also, the “gal Sic1 wt” value in assay [1] is “alive”. For the same molecule, the “viability / sensitivity to increased SIC1 dosage” value in assay [1] (Sic1 wt or stabilized Sic1(T33V) or Sic1(T45A) over-expressed under a galactose promoter) was “lethal”.

B2: T441I/T465I: double mutant cdc4 polypeptide (protein)
chain: MGSFPLAEFPLRDIPVPYSYRVSGGIASSGSVTALVTAAGTHRNSSTAKTVETEDGEEDIDEYQRKRAAGSGESTPERSDFKRVKHDNHKTLHPVNLQNTGAASVDNDGLHNLTDISNDAEKLLMSVDDGSAAPSTLSVNMGVASHNVAAPTTVNAATITGSDVSNNVNSATINNPMEEGALPLSPTASSPGTTTPLAKTTKTINNNNNIADLIESKDSIISPEYLSDEIFSAINNNLPHAYFKNLLFRLVANMDRSELSDLGTLIKDNLKRDLITSLPFEISLKIFNYLQFEDIINSLGVSQNWNKIIRKSTSLWKKLLISENFVSPKGFNSLNLKLSQKYPKLSQQDRLRLSFLENIFILKNWYNPKFVPQRTTLRGHMTSVITCLQFEDNYVITGADDKMIRVYDSINKKFLLQLSGHDGGVWALKYAHGGILVSGSIDRTVRVWDIKKGCCTHVFKGHNSIVRCLDIVEYKNIKYIVTGSRDNTLHVWKLPKESSVPDHGEEHDYPLVFHTPEENPYFVGVLRGHMASVRTVSGHGNIVVSGSYDNTLIVWDVAQMKCLYILSGHTDRIYSTIYDHERKRCISASMDTTIRIWDLENIWNNGECSYATNSASPCAKILGAMYTLQGHTALVGLLRLSDKFLVSAAADGSIRGWDANDYSRKFSYHHTNLSAITTFYVSDNILVSGSENQFNIYNLRSGKLVHANILKDADQIWSVNFKGKTLVAAVEKDGQSFLEILDFSKASKINYVSNPVNSSSSSLESISTSLGLTRTTIIP
In the case of B2, the P-Sic1 pull down entry in the assay with phospho-Sic1 was “fully competent”. In addition, the shuffle result with cdc4Δ strain was “viable”.

B3: R572A: mutant cdc4 polypeptide (protein)
chain: MGSFPLAEFPLRDIPVPYSYRVSGGIASSGSVTALVTAAGTHRNSSTAKTVETEDGEEDIDEYQRKRAAGSGESTPERSDFKRVKHDNHKTLHPVNLQNTGAASVDNDGLHNLTDISNDAEKLLMSVDDGSAAPSTLSVNMGVASHNVAAPTTVNAATITGSDVSNNVNSATINNPMEEGALPLSPTASSPGTTTPLAKTTKTINNNNNIADLIESKDSIISPEYLSDEIFSAINNNLPHAYFKNLLFRLVANMDRSELSDLGTLIKDNLKRDLITSLPFEISLKIFNYLQFEDIINSLGVSQNWNKIIRKSTSLWKKLLISENFVSPKGFNSLNLKLSQKYPKLSQQDRLRLSFLENIFILKNWYNPKFVPQRTTLRGHMTSVITCLQFEDNYVITGADDKMIRVYDSINKKFLLQLSGHDGGVWALKYAHGGILVSGSTDRTVRVWDIKKGCCTHVFKGHNSTVRCLDIVEYKNIKYIVTGSRDNTLHVWKLPKESSVPDHGEEHDYPLVFHTPEENPYFVGVLRGHMASVRTVSGHGNIVVSGSYDNTLIVWDVAQMKCLYILSGHTDAIYSTIYDHERKRCISASMDTTIRIWDLENIWNNGECSYATNSASPCAKILGAMYTLQGHTALVGLLRLSDKFLVSAAADGSIRGWDANDYSRKFSYHHTNLSAITTFYVSDNILVSGSENQFNIYNLRSGKLVHANILKDADQIWSVNFKGKTLVAAVEKDGQSFLEILDFSKASKINYVSNPVNSSSSSLESISTSLGLTRTTIIP
With B3, the P-Sic1 pull down result in the assay on phospho-Sic1 is listed as “no bind”; in the assay with phospho-Sic1 (listed as Arg572) it was “inablity to bind”. Moreover, the values for the shuffle result in the assay on cdc4Δ strain and in the assay on cdc4Δ strain (listed as Arg572) were “alive” and “same behavior”, respectively. In addition, the results for the “gal Sic1T33V” value in assay [1] and in assay [1] (listed as Arg 572) were “dead” and “same effect”, respectively. Further, in assay [1], the “gal Sic1T45A” value is listed as “dead”. In assay [1], the “gal Sic1 wt” value is “alive”.
